Biological target: the molecule itself
Experiment: crystal structure; GOT1 (16 mg/mL) mixed with 40 uM AH, sitting-drop vapor diffusion, 18 °C, 0.1 M HEPES pH 7.5, 12% w/v PEG 3350; 2.6 Å; two subunits (chains A and B) form the dimer

B1: glutamic oxaloacetate transaminase 1 (GOT1) (enzyme, human)
chain: PPSVFAEVPQAQPVLVFKLTADFREDPDPRKVNLGVGAYRTDDCHPWVLPVVKKVEQKIANDNSLNHEYLPILGLAEFRSCASRLALGDDSPALKEKRVGGVQSLGGTGALRIGADFLARWYNGTNNKNTPVYVSSPTWENHNAVFSAAGFKDIRSYRYWDAEKRGLDLQGFLNDLENAPEFSIVVLHACAHNPTGIDPTPEQWKQIASVMKHRFLFPFFDSAYQGFASGNLERDAWAIRYFVSEGFEFFCAQSFSKNFGLYNERVGNLTVVGKEPESILQVLSQMEKIVRITWSNPPAQGARIVASTLSNPELFEEWTGNVKTMADRILTMRSELRARLEALKTPGTWNHITDQIGMFSFTGLNPKQVEYLVNEKHIYLLPSGRINVSGLTTKNLDYVATSIHEAVTKIQ
modifications: in the crystal: C17 atom of AH covalently linked to the N atom of Lys259 in chain A; PLP in chain B
notes: GOT1, expression construct pET26b-got1; Domains described in the structure span residues 17-411; also called WT-GOT1; glutamic-oxaloacetic transaminase 1; source: E. coli BL21 (DE3), purified (HisTrap FF, Resource Q, Superdex200 Increase)
- binding result: binds

Reference: paper PMC8618880, “Discovery of GOT1 Inhibitors from a Marine-Derived Aspergillus terreus That Act against Pancreatic Ductal Adenocarcinoma” (Marine Drugs, 2021)
